# Experimental data from publication PMC10570711, “Tetramerization of upstream stimulating factor USF2 requires the elongated bent leucine zipper of the bHLH-LZ domain” (The Journal of Biological Chemistry, 2023).
# T1: MBP-USF2 R247A (Homo sapiens, UniProt Q15853 235-346, R247A)
# T1 sequence: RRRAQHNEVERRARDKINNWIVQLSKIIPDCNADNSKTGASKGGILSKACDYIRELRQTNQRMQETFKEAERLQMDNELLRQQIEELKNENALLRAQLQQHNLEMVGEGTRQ
# T2: MBP-USF2 E244K (Homo sapiens, UniProt Q15853 235-346, E244K)
# T2 sequence: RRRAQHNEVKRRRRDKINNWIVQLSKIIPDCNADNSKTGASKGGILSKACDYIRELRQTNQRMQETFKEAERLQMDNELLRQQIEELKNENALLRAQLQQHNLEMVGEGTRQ
# T3: MBP-USF2 E244A (Homo sapiens, UniProt Q15853 235-346, E244A)
# T3 sequence: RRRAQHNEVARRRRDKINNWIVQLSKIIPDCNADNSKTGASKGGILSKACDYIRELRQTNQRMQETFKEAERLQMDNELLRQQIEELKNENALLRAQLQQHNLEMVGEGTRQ
# T4: MBP-USF2 R248A (Homo sapiens, UniProt Q15853 235-346, R248A)
# T4 sequence: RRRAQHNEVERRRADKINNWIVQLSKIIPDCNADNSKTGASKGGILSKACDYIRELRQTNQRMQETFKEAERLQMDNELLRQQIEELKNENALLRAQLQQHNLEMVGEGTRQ
# Experiments:
# [1] = biological target: the molecule itself; test: crystal structure; USF2 235-346 cocrystallised with 18 bp double-stranded E-box DNA; sitting drop, 18 °C, 0.1 M Tris pH 7.0, 20% PEG4000; 3.5 Å; four protein chains in the asymmetric unit
# [2] = biological target: the molecule itself; test: SEC-MALS; 700 μM protein mixed with 350 μM E-box DNA, overnight at 4 °C; Superdex 75 Increase; 20 mM Hepes pH 7.5, 100 mM KCl, 10 mM DTT; 0.5 ml/min; the constant is of tetramer to dimers
# [3] = biological target: the molecule itself; test: dynamic light scattering; USF2_bHLH-LZ-ext-DNA complexes, 400 μM sample; 100 mM KCl, 10 mM Hepes pH 7.5
# MBP-USF2_ΔLZ-Ext = MBP-USF2_ΔLZ-Ext (Homo sapiens, UniProt Q15853 235-292); test: fluorescence anisotropy; FA: 20 nM FAM-DNA, 20 mM Tris pH 8.0, 50 mM KCl, 2 mM MgCl2, 0.5% glycerol, 4 C, 3 h; EMSA: 100 nM Cy3-DNA, 10 mM Tris pH 8.0, 50 mM KCl, 1 mM DTT, 2 mM MgCl2; details: protein: recombinant; tags: 6xHis-MBP N-terminal; chain copies: 2; label: 5'-FAM on strand 1; blunt as printed if S3 is read 3'-5' (printed with 5'-3' labels)
# MBP-USF2 R247A = biological target: T1, MBP-USF2 R247A; test: as above; details: protein: recombinant; tags: 6xHis-MBP N-terminal; chain copies: 2; label: 5'-FAM on strand 1; blunt as printed if S3 is read 3'-5' (printed with 5'-3' labels)
# MBP-USF2 H240A = MBP-USF2 H240A (Homo sapiens, UniProt Q15853 235-346, H240A); test: as above; details: protein: recombinant; tags: 6xHis-MBP N-terminal; chain copies: 2; label: 5'-FAM on strand 1; blunt as printed if S3 is read 3'-5' (printed with 5'-3' labels)
# MBP-USF2 E244K = biological target: T2, MBP-USF2 E244K; test: as above; details: protein: recombinant; tags: 6xHis-MBP N-terminal; chain copies: 2; label: 5'-FAM on strand 1; blunt as printed if S3 is read 3'-5' (printed with 5'-3' labels)
# MBP-USF2 E244A = biological target: T3, MBP-USF2 E244A; test: as above; details: protein: recombinant; tags: 6xHis-MBP N-terminal; chain copies: 2; label: 5'-FAM on strand 1; blunt as printed if S3 is read 3'-5' (printed with 5'-3' labels)
# MBP-USF2 R248A = biological target: T4, MBP-USF2 R248A; test: as above; details: protein: recombinant; tags: 6xHis-MBP N-terminal; chain copies: 2; label: 5'-FAM on strand 1; blunt as printed if S3 is read 3'-5' (printed with 5'-3' labels)
# USF2_Q334K = USF2_Q334K (Homo sapiens, UniProt Q15853 235-346, Q334K); test: fluorescence anisotropy; similar to USF2_WT; FA: 20 nM FAM-DNA, 20 mM Tris pH 8.0, 50 mM KCl, 2 mM MgCl2, 0.5% glycerol, 4 C, 3 h; EMSA: 100 nM Cy3-DNA, 10 mM Tris pH 8.0, 50 mM KCl, 1 mM DTT, 2 mM MgCl2; details: protein: recombinant; chain copies: 2; label: 5'-FAM on strand 1; blunt as printed if S3 is read 3'-5' (printed with 5'-3' labels)
# MBP-USF2_WT = biological target: T5, MBP-USF2_WT (human, UniProt Q15853 235-346); test: fluorescence polarisation; fluorescence anisotropy; 10 nM 5IAF-labelled USF2_WT, MBP-USF2 proteins titrated 0-6 μM; 20 mM Tris 8.0, 50 mM KCl, 2 mM MgCl2, 0.5% glycerol; 4 °C overnight; apparent; dimer to monomers; details: both partners purified
# T5 construct: Upstream stimulating factor 2 (USF2), human, isoform 1, residues 235-346 (bHLH-LZ-Ext domain); Built in a pHis-MBP-TEV vector; a TEV site lies between the tag and USF2; also called 6×HisMBP-USF2_WT; source: E. coli Rosetta (DE3), purified (Ni-HiTrap, Superdex 75); not shown: His6, N-terminal, kept; MBP, N-terminal, kept
# Chain of MBP-USF2 H240A (Q15853 235-346 H240A): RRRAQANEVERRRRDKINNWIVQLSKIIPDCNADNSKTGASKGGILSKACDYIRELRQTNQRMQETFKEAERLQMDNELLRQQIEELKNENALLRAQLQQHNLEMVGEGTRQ
# Chain of USF2_Q334K (Q15853 235-346 Q334K): as the sequence (Q15853 235-346 H240A) above, with A6H, Q100K counted along it
binder,measurement,setting,value
"USF2_bHLH-LZ-Ext (human USF2 isoform 1, residues 235-346) (domain or fragment, UniProt Q15853 235-346, looked up, Upstream stimulating factor 2 (USF2), human, isoform 1, residues 235-346 (basic region to the C terminus; bHLH-LZ-Ext); In the crystal, SEC-MALS and DLS experiments the protein was in complex with 18 bp E-box DNA; His-MBP tag removed with TEV protease; also called USF2_WT; bHLH-LZ-Ext domain of USF2; source: E. coli Rosetta (DE3), purified (Ni-HiTrap, Superdex 75; TEV cleavage, HiTrap SP, S75); …) RRRAQHNEVERRRRDKINNWIVQLSKIIPDCNADNSKTGASKGGILSKACDYIRELRQTNQRMQETFKEAERLQMDNELLRQQIEELKNENALLRAQLQQHNLEMVGEGTRQ",stoichiometry N,[1],2
same,Kd,[2],~800000 nM
same,stoichiometry N,[3],4
"USF2_E312R_E320R (bHLH-LZ-Ext domain, residues 235-346, double mutant) (domain or fragment, human, UniProt Q15853 235-346, looked up, Upstream stimulating factor 2 (USF2), human, isoform 1, residues 235-346 (bHLH-LZ-Ext domain) with E312R and E320R; Generated on the construct MBP-USF2_WT; also called E312R/E320R double mutation; tetramer interface mutant; source: E. coli Rosetta (DE3), purified (Ni-HiTrap, Superdex 75)) RRRAQHNEVERRRRDKINNWIVQLSKIIPDCNADNSKTGASKGGILSKACDYIRELRQTNQRMQETFKEAERLQMDNRLLRQQIERLKNENALLRAQLQQHNLEMVGEGTRQ",stoichiometry N,[2],2
FAM E-box DNA (dsDNA) DNA 1: GACGGGCACGTGACGCGC DNA 2: GCGCGTCACGTGCCCGTC,binding signal,MBP-USF2_ΔLZ-Ext,> 20 fold decrease vs USF2_WT
same,Kd,MBP-USF2 R247A,250 ± 67 nM
same,Kd,MBP-USF2 H240A,210 ± 43 nM
same,Kd,MBP-USF2 E244K,290 ± 98 nM
same,Kd,MBP-USF2 E244A,72 ± 23 nM
same,Kd,MBP-USF2 R248A,460 ± 79 nM
same,binding result,USF2_Q334K,binds
"5IAF-labelled USF2_WT (5IAFUSF2_WT; labelled CGG-USF2_WT) (domain or fragment, human, 5-iodoacetamido-fluorescein (5-IAF) on the sulfhydryl cysteine end of CGG-USF2_WT, CGG added before USF2 for labelling with 5-IAF (construct MBP-CGG-USF2_WT); Upstream stimulating factor 2 (USF2), human, isoform 1, residues 235-346 (bHLH-LZ-Ext domain); Made from MBP-CGG-USF2_WT by TEV cleavage of the His-MBP tag; also called 5IAF labeled USF2_WT; source: E. coli Rosetta (DE3), purified (Ni-HiTrap, TEV cleavage, HiTrap SP, S75), labelled with 5-IAF; not shown: His6, N-terminal, …) CGGRRRAQHNEVERRRRDKINNWIVQLSKIIPDCNADNSKTGASKGGILSKACDYIRELRQTNQRMQETFKEAERLQMDNELLRQQIEELKNENALLRAQLQQHNLEMVGEGTRQ",Kd,MBP-USF2_WT,100 ± 19 nM
